B1: TPR t1 (parent)
chain: GACCAAUCUGCCCUCAGAGCUCGAGAACAUCUUCGGAUGCAGAGGAGGCAGGCUUCGGUGGCGCGAUAGCGCCAACGUCCUCAACCUCCAAUGCAUCCCACCACAUGAUGAUGCCUGAAGAGCCUUGGUUUUUUG

Variants of: B1
Assay: polymerase ribozyme fitness, log enrichment relative to wild type (log ratio); higher = more active; in vitro selection for triplet polymerase activity
Procedure, shortened: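 Each subunit of a heterodimeric triplet polymerase ribozyme was represented by a PCR-built, transcribed mutant library that underwent triplicate single-round in vitro selection with frozen incubation at −7 °C. Extended constructs were recovered by gel excision, streptavidin-bead capture and RT-PCR, and Illumina sequencing of input and output libraries kept genotypes with ≥10 input reads and ≥1 read per output. Fitness is the logarithm of genotype enrichment relative to wild-type enrichment, from inverse-variance-weighted replicate averages, with a logarithm base of 2.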

Variant | polymerase ribozyme fitness (log ratio)
C12U U55C G71A A90G G113U | -2.97
C13G G47A U54C | -2.54
C73U C82A | 0.468
C20U U55G C56A | -1.7
C3U U92C | -1.23
G10C G63A | -1.49
C62G U132A | -0.911
G69A G77A C86U U112A | -2.89
A46C C53U U54G G71U G120U | -0.575
U14A G36A C56U | -3.35
C12U C31G A37G G45U A50C G51U C102A G117U | -7.15
G57C G110U G120U | -4.33
U87C G107U | -4.55
C12A C53U A83C U106G G113U | -6.76
C15G A84U G120U U129G | -5.84
A66C U87G A118U U132A | -0.678
C4U C62G U112A | -1.6
G45A C72U A74U | -1.2
G69U G71U | -0.811
U112G C124U | 0.835
C28A C85U | -4.56

Variant | polymerase ribozyme fitness (log ratio)
C102U G122U | -1.26
C73G C86G | -2.52
C4G A27U G45A G61A C86A C97A G117A | -6.02
G19C C53G C62U C86U | -2.88
C72A C124G | 2.23
U59A C82G A119U | -0.921
A2U C8A A41U C101U U130G | -1.84
G45U C64U U81A | -2.88
C53U C80A U131A | -5.6
C97U A103U G113C C115A U116A | -6.04
C34A C124A | -1.1
C3G C102U C124A | -2.89
A5U C73A | -0.847
G44A C94U | -0.754
A18G C56G A103C C115G U129G U130C | -6.47
A43G C56U | -1.77
C73G U133G | -1.21
C13G G63U C102A | -5.61
A37C G61A C73U | -0.816
C31U C62U | -5.22
G52A C79A G110C | -5.08

Variant | polymerase ribozyme fitness (log ratio)
G57C U81C | 0.391
C12G U14A U38G C76U C85G | -3.19
A5G G44C C82A | -2.23
A16G C124U | 0.601
C13U G47C C72G G110A | -3.24
C12G C73A A74G C89A A111G G127U | -5.44
U78C C85G | -1.82
G61U U78C U116A | -2.17
U87C G120A G127A | -1.22
C70G U92C | -4.9
U55C G71A A90G G113U | -2.42
C12G C31U C49U G51U C70U C101A U109G | -6.92
U38G A46U G61A U87A | -0.463
U7G U21A U55G A121C | 1.32
C4G C13A | -3.23
A6U C22A C40A G61U | -5.59
C115U G120A | -2.24
A26U G42C C62U C70A C88U G117U | -6.33
G44A G71C C89U | -1.03
A6G C11G C13G C99A C102U | -5.35
C49U C104A | -2.12

Variant | polymerase ribozyme fitness (log ratio)
C86G U112G | 0.00839
C12A G48U G71A | -2.04
U87C C114G | -2
A2U A5G C12U G61A U112G | -2.18
A24U U38A C72U C80G C99U | -7.56
C3U U130G | -0.624
A27C G71A | -4
U7G G120C | 0.815
C8U A27G C82A | -1.59
G19A U106A | -2.97
A2U G120U | -1.32
G93U C115U | -1.63
C13A A29G U32A G39A G120A U126A U130G U134C | -2.77
C3A C89U | -1.82
C8G A74U | 0.0385
G63A U78C A84C U96G U116G | -4.46
A29U A83C C124A | -0.511
A29G C123A | -0.494
A18C G52U A74U A95U A121G | -3.61
C11A U21G A41G A121U | -0.0986
A5U G71C | -2.73

Source: the RNAGym collection of RNA variant scans (doi:10.1073/pnas.2313332121)
